B1: B9-30 (antibody, V domains shown)
VH: QVQLQQPGAEVVKPGAPVKLSCKASGYPFTNYWMNWVKQRPGRGLEWIGRIDPSNSEIYYNQKFKDKATLTVDKSSSTAYIQLSSLTSEDSAVYYCASGHYGSIFAYWGQGTTLTVSS
VL: VQITQSPSYLAASPGETITINCRASKSISKYLAWYQEKPGKTNKLLIYSGSTLQSGIPSRFSGSRSGTDFTLIISSLEPEDSAMYYCQQHNEYPLTFGAGTKLELKR
B2: B9-30 mAb (antibody, V domains shown)
VH: B1 VH
VL: B1 VL

Tests used:
[1] = molecular target: Commercial, Control Toxin B wt (List Biologicals) (Clostridium difficile, UniProt P18177 2-2366); experiment: dot blot, non-denaturing
Commercial, Control Toxin B wt (List Biologicals), sequence (P18177 2-2366 limits assumed): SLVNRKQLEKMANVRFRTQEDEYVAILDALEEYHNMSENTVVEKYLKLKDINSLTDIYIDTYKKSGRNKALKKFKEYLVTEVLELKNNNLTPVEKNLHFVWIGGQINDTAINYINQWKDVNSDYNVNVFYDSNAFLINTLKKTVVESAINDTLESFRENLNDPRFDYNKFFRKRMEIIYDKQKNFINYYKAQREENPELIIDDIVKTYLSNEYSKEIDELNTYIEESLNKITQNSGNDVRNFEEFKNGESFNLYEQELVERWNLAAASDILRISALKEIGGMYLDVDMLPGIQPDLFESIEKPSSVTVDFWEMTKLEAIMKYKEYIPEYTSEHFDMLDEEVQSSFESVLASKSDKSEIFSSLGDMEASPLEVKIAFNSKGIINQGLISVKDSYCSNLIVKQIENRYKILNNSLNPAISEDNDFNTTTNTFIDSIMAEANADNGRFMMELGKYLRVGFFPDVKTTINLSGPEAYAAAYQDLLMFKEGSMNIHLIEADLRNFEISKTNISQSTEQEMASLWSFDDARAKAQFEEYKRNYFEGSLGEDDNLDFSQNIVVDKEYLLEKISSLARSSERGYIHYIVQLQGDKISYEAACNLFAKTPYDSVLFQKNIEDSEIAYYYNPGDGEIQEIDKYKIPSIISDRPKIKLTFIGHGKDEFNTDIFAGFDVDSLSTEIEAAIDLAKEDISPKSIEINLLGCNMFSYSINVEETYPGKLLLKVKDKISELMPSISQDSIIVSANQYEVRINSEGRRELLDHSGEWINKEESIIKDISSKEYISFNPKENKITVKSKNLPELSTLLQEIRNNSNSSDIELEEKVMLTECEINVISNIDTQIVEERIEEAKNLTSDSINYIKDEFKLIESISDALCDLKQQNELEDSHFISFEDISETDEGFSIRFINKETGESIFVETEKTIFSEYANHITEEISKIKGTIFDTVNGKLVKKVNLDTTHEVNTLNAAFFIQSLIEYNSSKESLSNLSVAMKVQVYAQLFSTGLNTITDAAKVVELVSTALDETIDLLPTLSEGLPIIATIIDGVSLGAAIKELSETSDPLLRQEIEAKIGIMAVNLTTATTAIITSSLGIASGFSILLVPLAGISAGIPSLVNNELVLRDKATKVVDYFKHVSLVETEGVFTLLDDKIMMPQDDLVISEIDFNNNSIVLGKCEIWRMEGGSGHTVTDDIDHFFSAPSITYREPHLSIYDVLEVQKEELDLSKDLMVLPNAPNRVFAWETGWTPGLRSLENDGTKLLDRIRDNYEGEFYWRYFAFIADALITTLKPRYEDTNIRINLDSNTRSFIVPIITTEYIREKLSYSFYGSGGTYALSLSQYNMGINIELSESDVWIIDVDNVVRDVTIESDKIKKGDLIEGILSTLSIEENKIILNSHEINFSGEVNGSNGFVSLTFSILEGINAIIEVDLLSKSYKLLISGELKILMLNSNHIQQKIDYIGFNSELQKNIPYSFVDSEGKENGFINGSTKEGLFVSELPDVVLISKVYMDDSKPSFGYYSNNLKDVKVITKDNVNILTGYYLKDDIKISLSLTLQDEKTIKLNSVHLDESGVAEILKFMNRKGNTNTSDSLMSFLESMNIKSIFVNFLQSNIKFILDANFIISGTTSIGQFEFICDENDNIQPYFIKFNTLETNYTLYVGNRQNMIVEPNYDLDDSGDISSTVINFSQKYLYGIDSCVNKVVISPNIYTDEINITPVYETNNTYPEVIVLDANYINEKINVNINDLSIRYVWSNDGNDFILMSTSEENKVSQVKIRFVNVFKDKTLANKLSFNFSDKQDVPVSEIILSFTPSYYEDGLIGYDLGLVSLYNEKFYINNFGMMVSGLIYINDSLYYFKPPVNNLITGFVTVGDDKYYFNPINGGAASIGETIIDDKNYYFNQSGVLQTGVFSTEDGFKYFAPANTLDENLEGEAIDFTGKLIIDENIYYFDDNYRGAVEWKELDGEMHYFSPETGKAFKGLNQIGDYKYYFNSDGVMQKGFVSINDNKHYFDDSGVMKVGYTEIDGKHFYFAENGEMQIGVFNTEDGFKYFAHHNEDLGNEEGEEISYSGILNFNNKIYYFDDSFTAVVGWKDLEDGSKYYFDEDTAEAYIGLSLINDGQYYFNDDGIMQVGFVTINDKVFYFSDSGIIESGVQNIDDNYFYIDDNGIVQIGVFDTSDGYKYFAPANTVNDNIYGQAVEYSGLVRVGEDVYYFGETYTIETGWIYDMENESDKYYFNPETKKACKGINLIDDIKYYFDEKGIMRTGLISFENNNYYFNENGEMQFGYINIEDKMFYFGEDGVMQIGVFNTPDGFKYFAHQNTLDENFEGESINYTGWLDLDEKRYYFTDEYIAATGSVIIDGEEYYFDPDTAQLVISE

[2] = molecular target: wild-type C. difficile toxin B (TcdB wt, from List Bio) (C. difficile strain 630, UniProt P18177 2-2366); experiment: dot blot, nondenaturing
wild-type C. difficile toxin B (TcdB wt, from List Bio), sequence (P18177 2-2366 limits assumed): as above

Row | Binder | binding result [1] | binding result [2]
1 | B1 | binds | –
2 | B2 | – | binds

Reference: patent US20210024903A1 (Pfizer, published 2021)
